± gives the uncertainty stated by the source.
Test: self-splicing fitness, log relative to wild type (ln ratio); higher = more splicing; Tetrahymena group I intron in knt gene, E. coli kanamycin selection, DiMSum; sequences stand for … in CUCUCU…GGAGGGAAAAGUUAUCAGGCAUGCACCUGGUAGCUAGUCUUUAAACCAAUAGAUUGCAUCGGUUUAAAAGGCAAGACCGUCAAAUUGCGGGAAAGGGGUCAACAGCCGUUCAGUACCAAGUCUCAGGGGAAACUUUGAGAUGGCCUUGCAAAGGGUAUGGUAAUAAGCUGACGGACAUGGUCCUAACCACGCAGCCAAGUCCUAAGUCAACAGAUCUUCUGUUGAUAUGGAUGCAGUUCACAGACUAAAUGUCGGUCGGGGAAGAUGUAUUCUUCUCAUAAGAUAUAGUCGGACCUCUCCUUAAUGGGAGCUAGCGGAUGAAGUGAUGCAACACUGGAGCCGCUGGGAACUAAUUUGUAUGCGAAAGUAUAUUGAUUAGUUUUGGAGUACUCGUGGUCG
Summary of the method: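 DiMSum derived fitness as the error-weighted combination of fold changes across replicates, kanamycin versus no kanamycin, normalised to wild type. E. coli BL21(DE3) held the library, which randomised all eight P1ex-region intron nucleotides within the knt kanamycin-resistance gene on pET-22b(+). Six replicate transformations grew overnight at 37°C or 30°C on LB agar with or without 25 μg/mL kanamycin, also containing 100 μg/mL carbenicillin, 50 μM IPTG and 0.2% rhamnose, and pooled colonies were amplicon-sequenced on an Illumina HiSeq 2500.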

Sequence	self-splicing fitness (ln) (37 °C)	self-splicing fitness (ln) (30 °C)
CGGGAGCAAUAUUACGAGUC	-1.07 ± 0.26	
GUCUAGCAAUAUUACGUGAC	-0.257 ± 0.2	-3.73 ± 0.33
ACUAAGCAAUAUUACGCUUU	-1.97 ± 0.18	-2.34 ± 0.17
GGCAAGCAAUAUUACGCGGG	-3.23 ± 0.26	-3.73 ± 0.21
GUUCAGCAAUAUUACGACAU	0.437 ± 0.033	-0.0137 ± 0.013
CGAGAGCAAUAUUACGACAG	-1.15 ± 0.32	-2.82 ± 0.37
ACUCAGCAAUAUUACGUUGG	-1.49 ± 0.096	-3.63 ± 0.15
UGAGAGCAAUAUUACGUCAC		-2.08 ± 0.4
CUCUAGCAAUAUUACGCAGG	-3.04 ± 0.47	-3.35 ± 0.26
UGACAGCAAUAUUACGCUAG	-0.358 ± 0.11	-1.37 ± 0.076
UUAAAGCAAUAUUACGCCAG	-1.25 ± 0.21	0.134 ± 0.17
UGUUAGCAAUAUUACGCAGG	-2.96 ± 0.25	-3.96 ± 0.35
GAAGAGCAAUAUUACGGGCA	-1.23 ± 0.14	-1.96 ± 0.16
GCACAGCAAUAUUACGAUUG	-0.657 ± 0.083	-2.27 ± 0.077
CCAGAGCAAUAUUACGGCUA	-2.94 ± 0.4	-2.84 ± 0.2
CCACAGCAAUAUUACGGGUA	-2.88 ± 0.18	-3.44 ± 0.21
GAUUAGCAAUAUUACGAAGG	-1.8 ± 0.35	-3.53 ± 0.43
CUCUAGCAAUAUUACGCGUA	-3.32 ± 0.24	-4.1 ± 0.27
AUUAAGCAAUAUUACGCCGU	-0.369 ± 0.14	-0.62 ± 0.1
UUCAAGCAAUAUUACGUGAA	-0.479 ± 0.12	-0.675 ± 0.089
AGCGAGCAAUAUUACGCCAU	-1.58 ± 0.18	-4.12 ± 0.46
GAUUAGCAAUAUUACGGAAU	-2.11 ± 0.17	-2.71 ± 0.15
UAUUAGCAAUAUUACGACCU	-0.551 ± 0.15	-1.41 ± 0.16
CGGAAGCAAUAUUACGCCAG	-0.336 ± 0.26	-0.858 ± 0.27
GGAAAGCAAUAUUACGUGCG	-0.596 ± 0.12	-0.344 ± 0.11

Sequence	self-splicing fitness (ln) (37 °C)	self-splicing fitness (ln) (30 °C)
GUUCAGCAAUAUUACGGAGG	-1.22 ± 0.17	-2.38 ± 0.13
GAACAGCAAUAUUACGUGUC	-3.22 ± 0.17	-3.49 ± 0.14
UUCCAGCAAUAUUACGCGUG	-0.516 ± 0.073	-1.43 ± 0.069
CCAUAGCAAUAUUACGUGUC	-2.45 ± 0.23	-3.89 ± 0.2
AGCCAGCAAUAUUACGAUAC	-3.14 ± 0.14	-3.73 ± 0.14
GACUAGCAAUAUUACGGCCU	-0.85 ± 0.16	-1 ± 0.11
UGCGAGCAAUAUUACGUAAA	-1.77 ± 0.18	-2.8 ± 0.1
GAGUAGCAAUAUUACGUAGC		-2.44 ± 0.34
AAUUAGCAAUAUUACGGAUG	-0.146 ± 0.15	-2.06 ± 0.12
ACUUAGCAAUAUUACGUCGU	-1.28 ± 0.088	-1.99 ± 0.079
UUCAAGCAAUAUUACGGGCC	-2.94 ± 0.48	
GGUAAGCAAUAUUACGUCUA	-0.562 ± 0.1	-0.569 ± 0.1
ACUAAGCAAUAUUACGGACU	0.436 ± 0.076	0.14 ± 0.054
GACCAGCAAUAUUACGCCUU	0.293 ± 0.087	-0.277 ± 0.07
GCUCAGCAAUAUUACGCUAC	-2.69 ± 0.2	-3.26 ± 0.17
CGACAGCAAUAUUACGAUAC	-2.96 ± 0.27	-3.71 ± 0.25
GCUAAGCAAUAUUACGGCGG	-2.7 ± 0.15	-3.78 ± 0.12
UGCGAGCAAUAUUACGUUUA	-2.99 ± 0.14	-2.19 ± 0.16
CUCGAGCAAUAUUACGUGUA	-3.35 ± 0.22	-2.89 ± 0.12
CCGAAGCAAUAUUACGAUGA	-2.24 ± 0.19	-3.16 ± 0.26
CGGAAGCAAUAUUACGCUGA	-1.21 ± 0.26	
UAGGAGCAAUAUUACGCUCC	-2.28 ± 0.25	
AGCAAGCAAUAUUACGAGUA	-0.688 ± 0.12	-1.67 ± 0.12
AGCUAGCAAUAUUACGUCAC	-2.69 ± 0.29	
UACCAGCAAUAUUACGAAUC	-1.05 ± 0.23	-2.37 ± 0.2

Sequence	self-splicing fitness (ln) (37 °C)	self-splicing fitness (ln) (30 °C)
UCCUAGCAAUAUUACGCAAA	-1.48 ± 0.12	-2.95 ± 0.21
GCGAAGCAAUAUUACGGGUA	-0.904 ± 0.17	-3.04 ± 0.23
AACCAGCAAUAUUACGAGUU	-1.78 ± 0.14	-3.37 ± 0.16
GCAAAGCAAUAUUACGCAGU	-2.42 ± 0.23	-3.23 ± 0.28
GGUCAGCAAUAUUACGAAAU	0.351 ± 0.12	-1.15 ± 0.097
AACUAGCAAUAUUACGCGAG	-0.501 ± 0.12	-1.82 ± 0.11
UUAUAGCAAUAUUACGCACU	-0.214 ± 0.21	-1.15 ± 0.16
GGACAGCAAUAUUACGAGUU	-1.24 ± 0.11	-3.64 ± 0.19
CUCGAGCAAUAUUACGCAGU	-2.83 ± 0.25	-2.06 ± 0.12
GUAAAGCAAUAUUACGUCGU	-0.114 ± 0.14	-0.978 ± 0.091
ACGAAGCAAUAUUACGAACG	-0.288 ± 0.11	-1.3 ± 0.091
ACGGAGCAAUAUUACGGCGA	-1.83 ± 0.15	-2.01 ± 0.13
ACGUAGCAAUAUUACGCGGC	-2.47 ± 0.42	-3.01 ± 0.22
ACCCAGCAAUAUUACGCACG	-1.01 ± 0.084	-1.86 ± 0.067
CAAAAGCAAUAUUACGGCAC	-2.09 ± 0.15	-2.9 ± 0.14
GUUAAGCAAUAUUACGGCCC	0.517 ± 0.17	0.0722 ± 0.14
AGUAAGCAAUAUUACGACAC	-0.792 ± 0.17	-1.58 ± 0.19
AGACAGCAAUAUUACGGGAC	-2.54 ± 0.23	-2.87 ± 0.18
UUUCAGCAAUAUUACGUUCA	-0.407 ± 0.15	-1.04 ± 0.13
CUAAAGCAAUAUUACGCGAC	-0.124 ± 0.17	-0.482 ± 0.14
CAUUAGCAAUAUUACGAAAG	-0.567 ± 0.13	-0.84 ± 0.12
CCUCAGCAAUAUUACGUCGA	-2.28 ± 0.2	-3.67 ± 0.27
AGAUAGCAAUAUUACGGACU	-0.666 ± 0.093	0.201 ± 0.1
UGCGAGCAAUAUUACGGGCG	-0.628 ± 0.086	-1.59 ± 0.061
GUGAAGCAAUAUUACGGUAC	-0.311 ± 0.15	-0.508 ± 0.12

Sequence	self-splicing fitness (ln) (37 °C)	self-splicing fitness (ln) (30 °C)
CAGUAGCAAUAUUACGAUCA	-2.04 ± 0.32	-1.67 ± 0.24
ACGCAGCAAUAUUACGCUCC	-0.96 ± 0.18	
CUUCAGCAAUAUUACGUGCU	-2.6 ± 0.13	-3.07 ± 0.12
CAGGAGCAAUAUUACGGAGC	-3.3 ± 0.47	-2.2 ± 0.39
AAGAAGCAAUAUUACGGCAA	-0.201 ± 0.13	-0.128 ± 0.096
CAUAAGCAAUAUUACGGUAG	-0.382 ± 0.089	-1.06 ± 0.087
CUUAAGCAAUAUUACGCUCA	-2.01 ± 0.5	-2.78 ± 0.22
AGGAAGCAAUAUUACGGUCA	0.202 ± 0.091	-0.983 ± 0.086
GGGGAGCAAUAUUACGUGAG	-1.36 ± 0.2	-1.74 ± 0.26
UAUGAGCAAUAUUACGUUGU	-2.27 ± 0.18	-4.16 ± 0.24
AUACAGCAAUAUUACGUAUC	-2.6 ± 0.17	-4.19 ± 0.21
ACCGAGCAAUAUUACGACUC	-1.59 ± 0.22	-1.44 ± 0.29
AAUCAGCAAUAUUACGCCCG	-0.489 ± 0.16	-0.416 ± 0.14
UUAUAGCAAUAUUACGGUUU	-1.09 ± 0.12	-1.66 ± 0.1
GUAUAGCAAUAUUACGACUC	0.0743 ± 0.23	-0.23 ± 0.14
GAGCAGCAAUAUUACGUUAG	-1.93 ± 0.19	-2.57 ± 0.16
UAGCAGCAAUAUUACGAGGC	-3.43 ± 0.31	
UACUAGCAAUAUUACGCGAG	-1.59 ± 0.07	-1.86 ± 0.072
AGGAAGCAAUAUUACGUACU	-0.989 ± 0.19	-1.76 ± 0.12
GACCAGCAAUAUUACGUCCU	0.317 ± 0.11	-1.86 ± 0.1
GGAAAGCAAUAUUACGUACU	-0.834 ± 0.13	-1.25 ± 0.082
UCGUAGCAAUAUUACGGAAU	-1.55 ± 0.27	
UCAAAGCAAUAUUACGAAUA	-1.78 ± 0.3	-1.92 ± 0.43
